Results as given in patent publication US20260242478A1 (published 2026).
Where no end group is shown, it is not given here.

Legend:
PSMA Fab [1] = target: T1, PSMA Fab (biotinylated (site not given)); assay: phage ELISA: clonal phage supernatant on biotinylated PSMA Fab captured on neutravidin plate, blocking buffer alone; anti-M13 HRP detection;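 also: crude clonal phage supernatants added to wells preincubated with blocking buffer, incubated briefly, bound phage detected with a horseradish-conjugated anti-M13 antibody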
T1 construct: Biotinylated PSMA Fab captured on neutravidin plates in the phage ELISA; also called Anti-PSMA Fab; 006 PSMA Fab

PSMA Fab [2] = target: T1, PSMA Fab; assay: phage ELISA on captured biotinylated PSMA Fab, wells pre-incubated with PSMA antigen (competitor: PSMA); anti-M13 HRP detection
Method: (§1) Clonal phage were harvested as crude supernatants and screened via standard ELISAs. […] Prior to the addition of clonal phage. wells were incubated with blocking buffer and PSMA antigen or blocking buffer alone. Without washing or aspirating, clonal phage supernatants were then added to the wells and incubated for a short time. Wells were then washed followed by detection of bound phage using a horse radish conjugated anti-M13 antibody.

PSMA Fab [3] = target: T2, PSMA Fab; assay: clonal phage ELISA on biotinylated PSMA Fab captured on neutravidin plates, anti-M13-HRP detection; blocking buffer alone
T2 construct: Biotinylated and captured on neutravidin plates in the phage ELISA; also called Anti-PSMA Fab; 006 PSMA Fab
Method: as §1

Binder | Phage binding ELISA signal, Anti-PSMA Fab (PSMA Fab [1]) | Phage binding ELISA signal, Anti-PSMA Fab in presence of PSMA (PSMA Fab [2]) | Phage binding ELISA signal, Anti-PSMA Fab (PSMA Fab [3])
PEHWCIPPWMCVVH (peptide, not shown: large carriers, cysteine pairing not given here; also: displayed on phage as fusion to pIII, pIII and linker sequence not given here, Clonal phage of the Peptide-180 optimisation library, tested as crude supernatant) [Phage-2473] | 1.24 | 0.513 | –
GFPMCKPLWMCENL (peptide, not shown: large carriers, cysteine pairing not given here; also: displayed on phage as fusion to pIII, pIII and linker sequence not given here, Clonal phage of the Peptide-180 optimisation library, tested as crude supernatant) [Phage-2479] | 1.23 | 0.0667 | –
EHKWCTPLWMCEGL (peptide, not shown: large carriers, cysteine pairing not given here; also: fused to phage pIII (clonal phage display), Clonal phage of the Peptide-180 optimisation library, tested as crude supernatant) [Phage-2475] | 1.23 | 0.09 | –
PFKWCTPAWMCEVH (peptide, not shown: large carriers, cysteine pairing not given here; also: displayed on phage as fusion to pIII, pIII and linker sequence not given here, Clonal phage of the Peptide-180 optimisation library, tested as crude supernatant) [Phage-2480] | 1.23 | 0.0594 | –
LGHWCTPPWMCTES (cysteine pairing not given here; also: fused to phage pIII, linker and fusion site not given here, Clonal phage of the Peptide-180 library, tested as crude supernatant; not shown: pIII coat protein of the bacteriophage to which the peptide is fused) [Phage-2527] | – | – | 1.17
WSNWCIPPWMCAMN (peptide, not shown: large carriers, cysteine pairing not given here; also: displayed on phage as fusion to pIII, pIII and linker sequence not given here, Clonal phage of the Peptide-180 optimisation library, tested as crude supernatant) [Phage-2481] | 1.23 | 0.0771 | –
YHNWCVPQWMCVGL (peptide, not shown: large carriers, cysteine pairing not given here; also: displayed on phage as fusion to pIII, pIII and linker sequence not given here, Clonal phage of the Peptide-180 optimisation library, tested as crude supernatant) [Phage-2476] | 1.23 | 0.127 | –
YEKWCTPAWMCDFV (cysteine pairing not given here; also: fused to phage pIII, linker and fusion site not given here, Clonal phage of the Peptide-180 library, tested as crude supernatant; not shown: pIII coat protein of the bacteriophage to which the peptide is fused) [Phage-2528] | – | – | 1.17
DFHMCTPRWMCEGM (peptide, not shown: large carriers, cysteine pairing not given here; also: displayed on phage as fusion to pIII, pIII and linker sequence not given here, Clonal phage of the Peptide-180 optimisation library, tested as crude supernatant) [Phage-2474] | 1.24 | 0.0622 | –
EMIRCIPDWMCMSY (peptide, not shown: large carriers, cysteine pairing not given here; also: displayed on phage as fusion to pIII, pIII and linker sequence not given here, Clonal phage of the Peptide-180 optimisation library, tested as crude supernatant) [Phage-2478] | 1.23 | 0.0624 | –
VEKWCIPQWMCSMD (peptide, not shown: large carriers, cysteine pairing not given here; also: displayed on phage as fusion to pIII, pIII and linker sequence not given here, Clonal phage of the Peptide-180 optimisation library, tested as crude supernatant) [Phage-2477] | 1.23 | 0.0715 | –
